We go through 21 sequences from the supplement of paper PMC7877785.

The data set in a line: self-splicing fitness, log relative to wild type (ln ratio); higher = more splicing; Tetrahymena group I intron in knt gene, E. coli kanamycin selection, DiMSum; sequences stand for … in CUCUCU…GGAGGGAAAAGUUAUCAGGCAUGCACCUGGUAGCUAGUCUUUAAACCAAUAGAUUGCAUCGGUUUAAAAGGCAAGACCGUCAAAUUGCGGGAAAGGGGUCAACAGCCGUUCAGUACCAAGUCUCAGGGGAAACUUUGAGAUGGCCUUGCAAAGGGUAUGGUAAUAAGCUGACGGACAUGGUCCUAACCACGCAGCCAAGUCCUAAGUCAACAGAUCUUCUGUUGAUAUGGAUGCAGUUCACAGACUAAAUGUCGGUCGGGGAAGAUGUAUUCUUCUCAUAAGAUAUAGUCGGACCUCUCCUUAAUGGGAGCUAGCGGAUGAAGUGAUGCAACACUGGAGCCGCUGGGAACUAAUUUGUAUGCGAAAGUAUAUUGAUUAGUUUUGGAGUACUCGUGGUCG
In short, it runs like this:
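Library with all eight P1ex-region intron nucleotides randomised, intron inside the knt kanamycin-resistance gene on pET-22b(+), in E. coli BL21(DE3). Cells grew overnight at 37°C or 30°C on LB agar with or without 25 μg/mL kanamycin (plus 100 μg/mL carbenicillin, 50 μM IPTG, 0.2% rhamnose), in six replicate transformations. Pooled colonies were amplicon-sequenced on Illumina HiSeq 2500. DiMSum fitness is the error-weighted combination of wild-type-normalised replicate fold changes, kanamycin versus none.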

± gives the uncertainty stated by the source.

Turning to GAUCAGCAAUAUUACGAACA, the “self-splicing fitness (ln)” value runs as follows: (30 °C) 0.0135 ± 0.15; (37 °C) 0.0485 ± 0.15. For GUCCAGCAAUAUUACGCCGG, the “self-splicing fitness (ln)” value was -2.64 ± 0.17 (30 °C) and -2.69 ± 0.31 (37 °C). The matching figures for UGUUAGCAAUAUUACGAAUA: -1.32 ± 0.14 and -0.0107 ± 0.14. The matching figures for ACGUAGCAAUAUUACGUUAA: -3.53 ± 0.25 and -2.58 ± 0.2.

Turning to AGUGAGCAAUAUUACGACGC, the “self-splicing fitness (ln)” value runs as follows: (30 °C) -1.01 ± 0.2; (37 °C) -0.737 ± 0.29.

As to CUUCAGCAAUAUUACGACGA, the “self-splicing fitness (ln)” value (37 °C) is -1.54 ± 0.37.

For CGCUAGCAAUAUUACGUGAC, under “37 °C”, the “self-splicing fitness (ln)” value is -2.52 ± 0.3. With AUCCAGCAAUAUUACGAUUC, the “self-splicing fitness (ln)” value is, setting by setting: (30 °C) -1.5 ± 0.11; (37 °C) -0.86 ± 0.12. The corresponding values for AUUCAGCAAUAUUACGACUU are -0.122 ± 0.1 and 0.27 ± 0.11.

With CUGGAGCAAUAUUACGGCGC, where the note is “37 °C”, the “self-splicing fitness (ln)” value is -1.02 ± 0.41. Regarding UGACAGCAAUAUUACGAUCC, the “self-splicing fitness (ln)” value reads like this: (30 °C) -0.422 ± 0.09; (37 °C) 0.083 ± 0.11.

For UGCAAGCAAUAUUACGAAAU, the “self-splicing fitness (ln)” value is -3.34 ± 0.2 (30 °C) and -2.04 ± 0.22 (37 °C). For GGGUAGCAAUAUUACGGUCC, the “self-splicing fitness (ln)” value (30 °C) was -1.34 ± 0.25.

In the case of ACGAAGCAAUAUUACGUUCC, the “self-splicing fitness (ln)” value is -2.97 ± 0.2 (30 °C) and -1.29 ± 0.16 (37 °C).

As for UUUUAGCAAUAUUACGUAGG, the “self-splicing fitness (ln)” value runs as follows: (30 °C) -1.99 ± 0.11; (37 °C) -0.229 ± 0.13. Turning to CGAGAGCAAUAUUACGAAUC, the “self-splicing fitness (ln)” value (30 °C) is -2.29 ± 0.27.

Take UGUGAGCAAUAUUACGAUGA: the “self-splicing fitness (ln)” value (30 °C) is -2.75 ± 0.17 and the “self-splicing fitness (ln)” value (37 °C) was -2.21 ± 0.17. Consider CUCCAGCAAUAUUACGCACG, for which the “self-splicing fitness (ln)” value (30 °C) was -1.52 ± 0.13 and the “self-splicing fitness (ln)” value (37 °C) is -1.12 ± 0.18.

Consider UAGCAGCAAUAUUACGUAUG, for which the “self-splicing fitness (ln)” value (30 °C) was -1.13 ± 0.061 and the “self-splicing fitness (ln)” value (37 °C) was -0.563 ± 0.084. The corresponding values for ACAUAGCAAUAUUACGGCGG are -1.04 ± 0.049 and -0.52 ± 0.072. The matching figures for AAGCAGCAAUAUUACGUCAG: -3.06 ± 0.2 and -2.43 ± 0.23.
